test: soluble on expression in E. coli; label from the status in PepcDB or PDB records

Sequence	soluble on expression in E. coli
MGSDKIHHHHHHMGPLSGITILDLTSVLMGPYATQTLADMGADVVKVESPEGDIVRHIGPGRTPGMGGMFLNTNRGKRSIVIDLKQNDGREALLRLAARANALIYNVRPQAMARLGLSYEQVAAVNPGIVYLGAFGYGQDGPYAAKPAYDDLIQGAAGVPTLLAAAGDGTPRYVPITIADRIVGLMAVNAMLGALMHQQRTGEGQRIDVPMFESMASFVLVDHLGGLTYEPPLDHGGYARLLSRSRKPYRTSDGYLCVLIYNDKQWRSFFEAIDRTDFLAQPRFANHAARTRHIDEIYEEIGAIFLTRTTAEWRELLERADIPVMPMHSMESILDDPHLRAVGFFETVEHPVEGRVRQMKVPSTWSATQPQPGGPAPTLGGNGRDILTEAGFSSAEIERLGHSKAVHLPD	not soluble
MGSDKIHHHHHHMGQSSEDAAMTLQPFDGFGLGLRPPHYRAFLDSERPLVDFVEVISENFMVGGGRPLHVIDAVRERYPVALHGVSMSVGSADGVKLDYLRRLKGLADRVDPMWVSDHLCWTGVEGFNSHDLLPVPYTEEAMAVVCANIALAQDVLERPLLLENPSSYVTFANDAMAEHQFLAEMCARTGCYLLLDINNIYVSASNHGFDPYEYLAAVPVDRVLQIHLAGHSQGRELLIDTHDQPVPDSVWALYEAAAGRFGPVAAMIERDDDIPPLDDLLAELDVARARWAAGRRGSLAA	not soluble
MGSDKIHHHHHHMGVSHGYVIWPLGSVHLISAIHPDILEKLMTKTLLLYSTVDGQTLAICQRMQTVMTQAGEQVELLSLNDCSGDALTQVDRVLIGASIRYGKHRPELLSFTNTHQDLLNSKMNGFFTVNVVARKPEKNTPATNPYMIKFLQLSAWQPKVLGVFAGKIAYPKYGPFDRFMIRFIMWMTKGPTDTKGTFEFTDWNKVDEFAGSFVKQ	not soluble
MGSDKIHHHHHHMHEAVARMLAKYEPKSVDDSVRALREIIQEVALLGLWRSKFFEHAAFYGGTALRILYGLDRFSENLDFSLLEPSPDFNLARYTASLEEELSAFGFNVRVEMVGKAVESAVQSAFLKANTRNELLVIETGGELAGQVAAGQVLKVKIEVDTDPPTGFTTSTRYLLQPIPFAVRSYSLPDLFAGKMHALLFRRWKNRVKGRDWYDFVWYAANHPQLNLAHLEQRMRQTGHWSGDLPLSAAAFRELLSDSIDRLDVDQARNDVAPFVKDQQALALWSHDFFRDVARRVQTDEG	not soluble
MGSDKIHHHHHHMHEDKNDIFESIDTEDFDNKTEEECLELVRKNGLNLIYIKNQTEEICLEAVRQNCNAIKCVQNQTEKICIEAVKQDWRMLEFVEEPTEEICMLAINQDGTALKYIENQTEELCLRAVEKNGAALEYVKEQTEEICIEAVRNSEFGLARVKNQTEKICMEAVKHCSYNLKWVENQTEEICMEAVRQNGLDLKFVKNQTETICLRAVRQNGMALEFVKEQTVGICLKAVRQYGMALKFVKEQTEEICTEAIKQDKRALSFVKGDKEKYKALYDNNEPFAKRYVRNVIEKENRALIKKGEENAKIKIAGKLYDRGMSFEDISDIVEIEISKLKVSLGVF	not soluble
MGSDKIHHHHHHMHIAPHDNQNKPIVDAEHDLVPLNYFNIVKLRRGEVFEYAVPGYETCVVPATGTVDIDVEGAIYPDLGNRTEDVWDGEPEGVYVPVGAKVRITCKTDVTETFIAGAKYDKVLEPFDVRADALDVVQYGSDDTKTHRKIKHILGANHHDKVGRLLVSELYTVGEGGWSGFPSHKHDTDRLPDETRHDETYNFRFKPNYGSGVQMLQREDNQPGDAYHIMDGSTVLIDKGYHPCAVLPGYQMYYFTILGGLSQRSLKQYFQPTHAEQLHTIPGIMDMVAKFK	not soluble
MGSDKIHHHHHHMHMAAKRGRTAQRLELGLQLRQLRENCDGGDRGVGLTRKQAVQGLRISEASLQRIETGSLNFRFVGDLRKLLTKYGVTDEDVVDSLISLNRESNQQDWLTQYRGLMPSGMPGFVGLEPEAHAMKAYHPTLVYGLLQTERYARAVHEVQKPIEEYTTEFIRSSVELRMKRQEVLTRESPVKLHVILGEAALRYPIGGAEVMREQCARIEELSGWDHITVQVLPFRPSYRSINDFAILDFGNNLPPRVQADSAWGSVSTSDKPREVDRFSRRFDTMTASALPPEDTPEFLHRLEREL	not soluble
MGSDKIHHHHHHMHQDTVRGKAFAMPLISPAYPAGPYRFRNREYLIITYRTDPQKLRDLVPEPLQVCEPMVKFEFIRMPDSTGFGDYTEGGQVIPVSFYGRRGSYTHCMFLDDHPPIAGGRELWGFPKKLASPTLRTETDTLVGTLDYGPVRVATGTMGYKHRAADLASVRASLAEPNFLLKIIPHVDGTPRICELVEYHLEDVHLRGAWTGPAALNLWSHALAPVAELPVLEVVSAVHLVADLTLALGKVVHDYLAKA	not soluble
MGSDKIHHHHHHMHRFKYDHPLDDGVRRRVMEELAALERRHHVRVLYACESGSRAWGFASPDSDYDVRFLYVHRPQWYLQVEPQRDVIELPLDDELDISGWELRKALQLLNRSNPTMFEWLQSPLVYRADEKAAAALRELMADFHSLGRCRWHYLSMARKNHRVHLQGETVRLKKYLYVLRPLLAVRWLDAGKGLPPMRFADLAAATVEDDGLAAEINHLLAIKMAAGEAQLGGRLPKLDAFIASMLAEPVPPLPGRHDGDVRRLDRLLQEWVMGSVREDGSAACEI	not soluble
MGSDKIHHHHHHMHSMALPESSYERLRAADCADEIAYVRACLRLYFSGAAAAAGDVSMPNLSAAAVADIARLNKVATFVLKVLSRAPVGERPAELFQWLDTYRRRTVSMNAACLMDSMVIHQALRDRQIDFVFLKGPFQQHLLYDDHFMKPSGDVDILVSPAGFSRARDALRSIGYEVSGKSRSVWWVRFLGEQHMIRGNGPSTVDLHYRLQQPGSPSPRDADGFLRRKRLVEITGTEVPFTSAADTLMLSCISVAKALFNHEPCAGYVCDIRASANRLGEADQQRVLDAAVSQGLDDTLLLGLRAADVLLGATGTLLSERAKPILSRIGNEDLLNMVIAPWLSSLRWPQRRTVLWELCGRAPVRYLAEAAWAASADISRRIFERPASP	not soluble
MGSDKIHHHHHHMHTCPRCDSKKGEVMSKSPVEGAWEVYQCQTCFFTWRSCEPESITNPEKYNPAFKIDPKETETAIEVPAVPEPKGLIRVNCMSDRLFELLDGSCLNEKQHEAFVLQTVSEDGWPHAAMISAGEIIALSRTDIRIALWKNTMTSANILRTGKAQFTAWWKGAAYYVKLECAPLPPLKDAEYERDRFSCRIVSVKEDVAKYADLTSGVRIQLHSPEEVLSRWKKTLEDLKR	not soluble
MGSDKIHHHHHHMHVIVKNRYTQEIIHFFLENCRTESLRRSSIYAADFLYGKDQGFFIELRERISNYLDRNVDRISIEIASETGKPFKYIREEILQTIREIKSIRIPEDLHEFVKPGVSALNYNCNDPVLSLFVPLFATILQGSPVLVFANPYNFVSAHIIISMLSEIGLPEGVVNVIPFKPNFNYAYLYGENFSYFQDTYDGLGINRIIQSERHKPATVLWGDIDPDSAVSEFTKRLVRMPFSNEQLLVVDRRMFEYVLNRLKEELSRIVVGDPADGATDLGPVTKDEDLMEALSIVGKYRVERLLAMFRGVEGNLMKPAIILTDDVVKDPFVHAPLVYLVNSASVEDAVNLINEVEADRCALFSDDSKLLKMLYGRTACKEISFNSYMYKDYLFKPFLVKRKILM	not soluble
MGSDKIHHHHHHMIASKSKQLVYNGRFTTQKTTGVQRVARELIAALIKFQPQDPVTVLVPPRPGVAVSGAKTVEVGFYKGVVWEQLILPLFARRGRIVNLGNSASIFLGNQIIYMHDAAVFDTPAHFSRPFRVWYRIMFWILARTSVCVLTNSRFSRDRLAHHCGVSAEKIRVVPLGADHLDALEPDTSVLDKHALTPDRFVLAVSSMNPTKNFGRLIAAFRQIGDPSVDLVIVGMQNTTVFGKHDPVGAPEPNIKYVGYISDEQLKALYQNAACFLYPSIYEGFGIPPLEAMRYGCPALVGKSAALPEVCADAALYCDPYSQDDIARKLRSLLDSPELRAELKRKGIAHAEQYRWSRSAEMMKAIFETL	not soluble
MGSDKIHHHHHHMIDELRAMAIFAETIKQGSFRAAAKELKLSPSVVSYQVTQLEKSVGTALIYRSTRKLSLTSEGGVLYQYALNMIQAAQQGLNQVAIEKQELRGTLTLTLPSALIKSEISKKISQFSKLHPFLNFKLFYTDDRQDLIHQGIDLAFRAGSMDDSNLKSKRVGEINRKLVCSYDYWKENIPPISPQDLTTWNWIKLDMLPNHRTLVNSAGEKCDIDFESNISVNNVEAMTQLCINGAGIATPPDYLIEKEIENNALVELLPNWQVESIPLYAVWPSNVFQNSSVKRLLEFLI	not soluble
MGSDKIHHHHHHMIDIKNTLLLGHRGARGEALENTLSGFEYAQNLQLSGLAGVEFDVQLSRDGQLVVFHDDTLERMCAQQSRLDQLNVSEIQRHRQFGQPIITLLDIASALNTYTYIELEVKTHSRTDYAKLVKALMHDLIDSSLASLPIVLTSFDVALHARLQRSTLLRHIPRGLLIREPELLKQAPNTALQLGCGQLGIHYPLLNHKVIQCCHQYDLPVSAWTVNDIETIKQLIDWQVDVIITDYPSYLLLP	not soluble
MGSDKIHHHHHHMIDLSLLPPPDVVESVDFEELYQETLGIFREFMKDQWTAALESDPVVKLMEVMAYREMLTRARVNAAAKASLLAFAKGNDLVNRAADYGVEKLVIRPADPDAVPPVEAVMEGDEALRYRTRLSLEALSVAGSSGAYEYHGLSASAELTNVSVDSPRFVEAELTPEVRAQLPAGAIVVVCDYDAGLANPLPGDVSLAILPSLSSTTPVAQLVAKVKAALSAEEVRPITDRPRVAAGVPTEFKVEAELQIEEGPDPDVVKATARAGLNAAIAEARRLQGQLPLSAIYAALHVTGIRSVTLKHPAAGVVCDKRHYPSCTSVTLTSKVVT	not soluble
MGSDKIHHHHHHMIEHFNPWWKGREGIEEDEDYRKWIGSEVRWVPEVIKKISLEPFSLNIIFGPRQVGKTTLLKLIVKKLLDEGKNPRSIFYLRCDYISDYKELMNVIDEYLEIKETEGIKSSYILLDEVTFPKEWFRAIKLYIDMGKFRNDVLILTGSTSMYTKGEVETFPGRRGKGKDAVMLPLTFREFIKIASPKLHSVLPRINSLNKVEECLKAIPFIEELNSLFKLYLISGGFPRAVKDLLKHNKVSEETYETYISWMRGDILKLGKSEEVARRIMKTIIKKLPSPVSWHGIAKEIDIGSHKTVFSYIELFERMFLIRVLPYIDPDKLEADFKREKKVHLIDPFLYHLVSRWTLTEEPSEDKIVESVVATHVARRYEVGYWRDGREIDVVTREGVGIEVKWSDNVKVSPVKVGKIRKVITLSKSKFSRDPLVIPVSVFLSCI	not soluble
MGSDKIHHHHHHMIELCEVTKTYPIYHGHAQRTILDRINLRVGKGQKWGILGRNGAGKSTLIRLISGAERPNTGNIVRNMTVSWPLAFGGAFQGSLTGRDNTRLICRAYGVDFDKTITMVENFAELGSYLWEPVKSYSSGMSARLAFAISISVEFDCFLIDEALAVGDHRFLQKCNVELFENRGDRAMIIVSHQTNIIRTHCDHAAVLENGHLTVHESVDSAIAAYEAL	not soluble
MGSDKIHHHHHHMIENLNGIHETVKYKEYSNVKLFINAEAEDYPIHWHTPMEIIMPLEGGYTVQIGDDLVHLNENDIIFIASGVKHRLIAPDTGKRLILQIEWSAVSKIKELNSILTLIAPAITLTPETSGDIHSNIRKLLLDISNEYQTDSFLSEAVIYSKILEVLVLIGRHHTASSCHFNVGRHKQQEYLERFLSICEYIDTHCTEDITLDEIAKIAGFSKYHFTRLFKQFTNNTFYKYLNQKRIELALTLLADPNISVTETAMQSGFANPSTFIRVFKTEKGCTPTEFRKMFIG	not soluble

— the DeepSol protein solubility set
